In the supplement of paper PMC12783771:
± gives the standard deviation of the averaged measurements.

B1: library; numbered along this chain (parent)
chain: MNIQIGELAKRTACPVVTIRFYEQEGLLPPPGRSRGNFRLYGEEHVERLQFIRHCRSLDMPLSDVRTLLSYRKRPDQDCGEVNMLLDEHIRQVESRIGALLELKHHLVELREACSGARPAQSCGILQGLSDCVCDTRGTTAHPSD

What was measured:
[1] = variants of: B1; test: sfGFP reporter fluorescence (15 h) (µM FITC); higher = higher leak; conditions: library round: Round 0; ligand: none
Summary of the method: (§1)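 An Echo normalized PCR-made linear PbrR templates to 5 nM and assembled 1 μL reactions in BL21 Star (DE3) PANOx-SP extract carrying the pPbrR-sfGFP reporter plasmid and 30 μg/mL GamS. Reactions received 1 µM lead chloride, 30 µM zinc acetate or no metal and stood 15 hr at 30 °C. Fluorescence at 485/528 nm (Synergy Neo2) was converted with FITC standard curves made in 50 mM sodium borate pH 8.5. Endpoint sfGFP signal is given in µM FITC, from up to three biological replicates.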

[2] = variants of: B1; test: sfGFP reporter fluorescence (15 h) (µM FITC); higher = stronger transcriptional activation; conditions: library round: Round 0
Summary of the method: as §1

Variant | sfGFP reporter fluorescence [1] | sfGFP reporter fluorescence ([2]; ligand: 1 µM Pb) | sfGFP reporter fluorescence ([2]; ligand: 30 µM Zn)
L126S | 0.0592 ± 0.0018 | 0.0585 ± 0.00078 | 0.05443 ± 0.00026
C79M | 0.05974 ± 0.00052 | 0.06121 ± 0.00052 | 0.0592 ± 0.0013
C79E | 0.0588 ± 0.00078 | 0.0596 ± 0.00078 | 0.0548 ± 0.00078
C79S | 0.0592 ± 0.0018 | 0.059 ± 0.001 | 0.055
C79F | 0.055 ± 0.0026 | 0.0574 ± 0.0013 | 0.0546 ± 0.0015
D64K K104V G128I | 0.711 ± 0.092 | 1.75 ± 0.096 | 4.36 ± 0.25
L129Q | 0.0588 ± 0.0018 | 0.0574 ± 0.0013 | 0.05406 ± 0.00026
G36E | 0.05992 ± 0.00026 | 0.0618 ± 0.0018 | 0.115 ± 0.0098
G36N | 0.064 ± 0.0018 | 0.09 ± 0.006 | 1.41 ± 0.29
G36W | 0.0579 ± 0.0057 | 0.0601 ± 0.0062 | 0.104 ± 0.0042
Y22Q | 0.0627 ± 0.001 | 0.0612 | 0.0607 ± 0.0023
Y22H | 0.063 ± 0.0015 | 0.06249 ± 0.00026 | 0.0651 ± 0.0018
Y22I | 0.0605 ± 0.0015 | 0.0583 ± 0.0015 | 0.0564 ± 0.0036
Y22T | 0.05937 ± 0.00052 | 0.06084 ± 0.00052 | 0.06121 ± 0.00052
Y22R | 0.0678 ± 0.00052 | 0.06579 ± 0.00026 | 0.0689 ± 0.0031
E112W | 0.0579 ± 0.0015 | 0.0627 ± 0.001 | 0.152 ± 0.014
E112L | 0.0603 ± 0.00078 | 0.0867 ± 0.0034 | 0.851 ± 0.048
R11A | 0.0548 ± 0.0023 | 0.0709 ± 0.0013 | 0.565 ± 0.025
E94M | 0.0581 ± 0.0018 | 0.0726 ± 0.0047 | 0.598 ± 0.031
E94R | 0.0597 ± 0.0052 | 0.0803 ± 0.0031 | 0.722 ± 0.032
E94L | 0.0579 ± 0.0021 | 0.0698 ± 0.0075 | 0.583 ± 0.006
E94Q | 0.0632 ± 0.0013 | 0.0856 ± 0.008 | 1.02 ± 0.07

Variant | sfGFP reporter fluorescence [1] | sfGFP reporter fluorescence ([2]; ligand: 1 µM Pb) | sfGFP reporter fluorescence ([2]; ligand: 30 µM Zn)
E94H | 0.0592 ± 0.0029 | 0.0632 ± 0.0023 | 0.344 ± 0.021
R137A | 0.0579 ± 0.0021 | 0.06524 ± 0.00052 | 0.454 ± 0.062
I125G | 0.0546 | 0.0559 ± 0.00078 | 0.0504 ± 0.0029
L58N | 0.05644 ± 0.00052 | 0.05791 ± 0.00052 | 0.0548 ± 0.0023
L58F | 0.0592 ± 0.0018 | 0.0731 ± 0.0013 | 0.261 ± 0.027
V46H | 0.0557 ± 0.0015 | 0.0738 ± 0.00078 | 0.345 ± 0.039
V46Q | 0.0544 ± 0.0039 | 0.0858 ± 0.001 | 0.755 ± 0.052
V46T | 0.057 ± 0.0013 | 0.07733 ± 0.00052 | 0.419 ± 0.0078
V46S | 0.055 ± 0.0021 | 0.0687 ± 0.00078 | 0.306 ± 0.059
V46E | 0.0579 | 0.0806 ± 0.0015 | 0.724 ± 0.053
N83S | 0.0605 ± 0.0026 | 0.0775 ± 0.00078 | 0.333 ± 0.016
N83L | 0.0585 ± 0.0018 | 0.07 ± 0.0088 | 0.0575 ± 0.0031
N83D | 0.0614 ± 0.0013 | 0.0607 ± 0.0013 | 1.003 ± 0.0065
E102A | 0.0735 ± 0.0018 | 0.0771 ± 0.0029 | 0.302 ± 0.057
E44A | 0.0612 ± 0.0015 | 0.0746 ± 0.0013 | 0.495 ± 0.044
I3M | 0.0641 ± 0.0015 | 0.0768 ± 0.0018 | 1.27 ± 0.15
I3N | 0.0599 ± 0.0013 | 0.0579 ± 0.0021 | 0.1142 ± 0.00026
I3Y | 0.0612 ± 0.0021 | 0.06744 ± 0.00052 | 0.977 ± 0.061
I3G | 0.061 ± 0.0023 | 0.0755 ± 0.0047 | 0.1957 ± 0.001
P61N K104V G128M | 0.395 ± 0.015 | 1.034 ± 0.006 | 3.13 ± 0.069
P61N K104V G128I | 0.133 ± 0.0086 | 0.341 ± 0.0067 | 1.53 ± 0.083
P15M | 0.0625 ± 0.0018 | 0.0795 ± 0.001 | 0.637 ± 0.02

Variant | sfGFP reporter fluorescence [1] | sfGFP reporter fluorescence ([2]; ligand: 1 µM Pb) | sfGFP reporter fluorescence ([2]; ligand: 30 µM Zn)
P15F | 0.0662 ± 0.0018 | 0.0702 ± 0.0049 | 0.256 ± 0.013
P15L | 0.0667 | 0.0938 ± 0.0036 | 1.06 ± 0.078
P15Q | 0.0654 ± 0.00078 | 0.0903 ± 0.0029 | 0.9395 ± 0.0039
D64K L107C G128M | 6.27 ± 0.28 | 5.91 ± 0.52 | 4.866 ± 0.045
R111L | 0.0552 ± 0.0013 | 0.06469 ± 0.00026 | 0.2 ± 0.016
R111V | 0.0586 ± 0.001 | 0.0744 ± 0.0021 | 0.483 ± 0.0073
P31A | 0.05736 ± 0.00026 | 0.0607 ± 0.0044 | 0.485 ± 0.04
C114L | 0.0561 | 0.0583 ± 0.0015 | 0.0531 ± 0.0015
E43N | 0.0577 ± 0.006 | 0.0828 ± 0.0036 | 1.21 ± 0.02
E43A | 0.06304 ± 0.00052 | 0.0969 ± 0.0044 | 1.66 ± 0.077
V16G | 0.0594 ± 0.0026 | 0.0812 ± 0.0018 | 0.493 ± 0.014
V16H | 0.06542 ± 0.00026 | 0.109 ± 0.0086 | 0.447 ± 0.0096
V16D | 0.0649 ± 0.0015 | 0.0975 ± 0.0026 | 0.9703 ± 0.0039
V16P | 0.06102 ± 0.00026 | 0.08796 ± 0.00052 | 1.53 ± 0.031
V16S | 0.06707 ± 0.00052 | 0.1145 ± 0.00026 | 1.22 ± 0.028
R33D | 0.0651 ± 0.00078 | 0.06377 ± 0.00052 | 0.0652
R33C | 0.0592 ± 0.00078 | 0.0607 ± 0.0023 | 0.0612 ± 0.0021
R33V | 0.0607 ± 0.00078 | 0.05937 ± 0.00052 | 0.0696 ± 0.0021
R33F | 0.0599 ± 0.0018 | 0.061 ± 0.0029 | 0.0665 ± 0.0044
M60L K104V G128M | 0.69 ± 0.028 | 1.46 ± 0.085 | 2.91 ± 0.039
R39V | 0.0588 ± 0.00078 | 0.05882 ± 0.00026 | 0.05736 ± 0.00026
R39F | 0.0597 ± 0.001 | 0.0588 ± 0.0013 | 0.0555 ± 0.0018

Variant | sfGFP reporter fluorescence [1] | sfGFP reporter fluorescence ([2]; ligand: 1 µM Pb) | sfGFP reporter fluorescence ([2]; ligand: 30 µM Zn)
R39I | 0.0572 ± 0.0015 | 0.0566 ± 0.0018 | 0.0726 ± 0.0042
V108Q | 0.0566 ± 0.00078 | 0.068 ± 0.0018 | 0.672 ± 0.06
V108A | 0.06304 ± 0.00052 | 0.0729 ± 0.0042 | 0.408 ± 0.11
V108E | 0.0579 ± 0.001 | 0.06652 ± 0.00026 | 0.62 ± 0.11
M60I | 0.12 ± 0.0029 | 0.319 ± 0.03 | 2.58 ± 0.063
M60P | 0.0605 | 0.05974 ± 0.00052 | 0.05516 ± 0.00026
M60F | 1.94 ± 0.16 | 2.94 ± 0.1 | 2.92 ± 0.028
M60G | 0.0561 ± 0.0015 | 0.05772 ± 0.00026 | 0.0588 ± 0.0013
M60T | 0.0601 ± 0.001 | 0.0621 ± 0.00078 | 0.0645 ± 0.001
M60L | 0.1063 ± 0.00052 | 0.295 ± 0.035 | 2.8 ± 0.031
M60R | 0.0614 ± 0.0034 | 0.0612 ± 0.001 | 0.0619 ± 0.0015
G138A | 0.0597 ± 0.001 | 0.0724 ± 0.0018 | 0.697 ± 0.17
P30T | 0.06395 ± 0.00026 | 0.0887 | 0.917 ± 0.17
P30V | 0.0619 ± 0.001 | 0.0924 ± 0.001 | 1 ± 0.0021
T136A | 0.0601 ± 0.001 | 0.0696 ± 0.0031 | 0.668 ± 0.013
L8A | 0.0575 ± 0.0021 | 0.0667 ± 0.0042 | 0.313 ± 0.038
V65A | 0.0629 ± 0.0013 | 0.0678 ± 0.0052 | 0.153 ± 0.036
L28T | 0.0647 ± 0.0013 | 0.0691 ± 0.0013 | 0.166 ± 0.031
P61N D64K L107C | 2.69 ± 0.12 | 3.57 ± 0.046 | 3.69 ± 0.12
D131Y | 0.05919 ± 0.00026 | 0.0815 ± 0.0029 | 0.806 ± 0.01
D131H | 0.0621 ± 0.0013 | 0.0957 ± 0.0026 | 0.996 ± 0.034
D131L | 0.0663 ± 0.0042 | 0.119 ± 0.0091 | 0.994 ± 0.19
